Results on one molecule are retold here after PMC4108507 (Journal of immunology (Baltimore, Md. : 1950), 2014).

This test concerns the target HA-DHX15, full-length recombinant protein (murine, UniProt O35286 1-795). Put plainly: pull-down.

Chain of HA-DHX15, full-length recombinant protein (O35286 whole entry): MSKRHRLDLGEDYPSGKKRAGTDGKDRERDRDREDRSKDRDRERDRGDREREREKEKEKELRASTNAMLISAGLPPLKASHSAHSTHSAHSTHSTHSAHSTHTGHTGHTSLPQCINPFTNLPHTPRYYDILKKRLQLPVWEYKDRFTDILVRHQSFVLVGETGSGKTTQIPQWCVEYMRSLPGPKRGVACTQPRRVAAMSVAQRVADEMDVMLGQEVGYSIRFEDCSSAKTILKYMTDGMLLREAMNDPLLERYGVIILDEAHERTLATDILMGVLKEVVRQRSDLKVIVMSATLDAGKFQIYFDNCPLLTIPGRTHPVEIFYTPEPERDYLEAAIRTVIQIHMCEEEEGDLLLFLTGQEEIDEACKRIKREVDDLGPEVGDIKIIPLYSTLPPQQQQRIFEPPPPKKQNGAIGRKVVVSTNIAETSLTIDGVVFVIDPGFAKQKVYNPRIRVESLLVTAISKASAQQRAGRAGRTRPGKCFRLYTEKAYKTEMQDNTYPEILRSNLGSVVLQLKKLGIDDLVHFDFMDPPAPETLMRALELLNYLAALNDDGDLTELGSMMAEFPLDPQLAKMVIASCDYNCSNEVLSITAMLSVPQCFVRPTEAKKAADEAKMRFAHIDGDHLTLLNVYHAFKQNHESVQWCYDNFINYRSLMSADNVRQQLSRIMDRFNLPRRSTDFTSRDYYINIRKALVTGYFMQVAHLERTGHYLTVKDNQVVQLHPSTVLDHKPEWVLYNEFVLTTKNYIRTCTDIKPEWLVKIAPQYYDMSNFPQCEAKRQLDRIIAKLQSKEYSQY

B1: Myc-MAVS, full-length recombinant protein (natural protein, murine, UniProt Q8VCF0 1-503, looked up)
chain: MTFAEDKTYKYIRDNHSKFCCVDVLEILPYLSCLTASDQDRLRASYRQIGNRDTLWGLFNNLQRRPGWVEVFIRALQICELPGLADQVTRVYQSYLPPGTSLRSLEPLQLPDFPAAVSGPSAFAPGHNIPDHGLRETPSCPKPVQDTQPPESPVENSEQLLQTNSGAVARMSGGSLIPSPNQQALSPQPSREHQEQEPELGGAHAANVASVPIATYGPVSPTVSFQPLPRTALRTNLLSGVTVSALSADTSLSSSSTGSAFAKGAGDQAKAATCFSTTLTNSVTTSSVPSPRLVPVKTMSSKLPLSSKSTAAMTSTVLTNTAPSKLPSNSVYAGTVPSRVPASVAKAPANTIPPERNSKQAKETPEGPATKVTTGGNQTGPNSSIRSLHSGPEMSKPGVLVSQLDEPFSACSVDLAISPSSSLVSEPNHGPEENEYSSFRIQVDESPSADLLGSPEPLATQQPQEEEEHCASSMPWAKWLGATSALLAVFLAVMLYRSRRLAQ
In the case of B1, the binding result is “binds”.
